In patent publication US7553667B2, “Regulation of gene expression using chromatin remodelling factors” (Her Majesty the Queen in right of Canada as represented by …, priority 2002, dated 2009):

T1: Gcn5 (Arabidopsis thaliana, UniProt Q9AR19)
T1 construct: expressed in transfected cells; host or cells: Saccharomyces cerevisiae MaV203
T1 sequence (Q9AR19 1-568): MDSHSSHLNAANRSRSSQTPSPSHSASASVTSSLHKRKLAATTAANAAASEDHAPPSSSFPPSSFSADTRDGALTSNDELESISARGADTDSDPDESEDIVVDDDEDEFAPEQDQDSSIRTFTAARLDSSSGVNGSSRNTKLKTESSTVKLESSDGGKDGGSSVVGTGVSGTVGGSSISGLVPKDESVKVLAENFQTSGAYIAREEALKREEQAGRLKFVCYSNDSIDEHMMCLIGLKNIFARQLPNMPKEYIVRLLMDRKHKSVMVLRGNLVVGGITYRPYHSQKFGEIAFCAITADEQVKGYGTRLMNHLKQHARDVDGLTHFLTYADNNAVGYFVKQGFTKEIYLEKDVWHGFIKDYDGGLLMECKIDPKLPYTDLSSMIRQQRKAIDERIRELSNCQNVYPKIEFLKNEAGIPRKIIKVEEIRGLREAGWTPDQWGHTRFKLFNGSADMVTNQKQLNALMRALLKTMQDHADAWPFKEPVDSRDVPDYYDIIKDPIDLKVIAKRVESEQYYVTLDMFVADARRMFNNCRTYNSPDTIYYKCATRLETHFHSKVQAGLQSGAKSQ

T2: GST-HDA19 (Arabidopsis thaliana, UniProt O22446)
T2 construct: made in house; host or cells: E. coli BL21-CodonPlus (DE3)-RP
T2 sequence (O22446 1-501): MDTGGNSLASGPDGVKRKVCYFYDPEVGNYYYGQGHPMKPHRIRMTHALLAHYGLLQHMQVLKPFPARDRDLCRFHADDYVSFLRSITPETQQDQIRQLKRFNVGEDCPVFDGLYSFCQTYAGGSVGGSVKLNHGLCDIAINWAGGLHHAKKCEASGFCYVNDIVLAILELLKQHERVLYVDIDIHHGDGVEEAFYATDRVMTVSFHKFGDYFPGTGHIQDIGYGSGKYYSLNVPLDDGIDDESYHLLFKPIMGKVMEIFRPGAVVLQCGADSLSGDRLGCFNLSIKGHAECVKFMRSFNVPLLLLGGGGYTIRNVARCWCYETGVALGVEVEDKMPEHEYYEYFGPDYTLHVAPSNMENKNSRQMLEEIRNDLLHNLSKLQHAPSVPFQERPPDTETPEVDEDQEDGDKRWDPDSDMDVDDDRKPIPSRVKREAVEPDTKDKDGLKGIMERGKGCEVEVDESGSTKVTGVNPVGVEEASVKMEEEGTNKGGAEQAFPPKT

T3: GST-Gcn5 (Arabidopsis thaliana, UniProt Q9AR19)
T3 construct: made in house; host or cells: E. coli BL21-CodonPlus (DE3)-RP
T3 sequence (Q9AR19 1-568): T1 sequence (Q9AR19 1-568)

B1: bnKCP1: B. napus KID-containing protein 1, 215 amino acid protein interacting with HDA19 (SEQ ID NO:71) (protein)
chain: MAGGGPTFSIELSAYGSDLPTDKASGDIPNEEGSGLSRVGSGIWSGRTVDYSSESSSSIGTPGDSEEEDEESEEDNDEEELGLASLRSLEDSLPSKGLSSHYKGKSKSFGNLGEIGSVKEVPKQENPLNKKRRLQIYNKLARKSFYSWQNPKSMPLLPVHEDNDDEEGDDGDLSDEERGGDVLARRPSFKNRALKSMSCFALSDLQEEEEEEEDE
modifications: left off: large carriers
B2: BnSCL1: Brassica napus SCARECROW-like protein 1, SEQ ID NO:81 (protein)
chain: MKLQASSPQDNQPSNTTNNSTDSNHLSMDEHAMRSMDWDSIMKELEVDDDSAPYQLQPSSFNLPVFPDIDSSDVYPGPNQITGYGFNSLDSVDNGGFDYIEDLIRVVDCIESDELHLAHVVLSQLNQRLQTSAGRPLQRAAFYFKEALGSLLTGTNRNQLFSWSDIVQKIRAIKEFSGISPIPLFSHFTANQAILDSLSSQSSSPFVHVVDFEIGFGGQYASLMREIAEKSANGGFLRVTAVVAEDCAVETRLVKENLTQFAAEMKIRFQIEFVLMKTFEILSFKAIRFVDGERTVVLISPAIFRRVIGIAEFVNNLGRVSPNVVVFVDSEGCTETAGSGSFRREFVSAFEFYTMVLESLDAAAPPGDLVKKIVETFLLRPKISAAVETAANRRSAGQMTWREMLCAAGMRPVQLSQFADFQAECLLEKAQVRGFHVAKRQGELVLCWHGRALVATSAWRF
modifications: left off: large carriers

Experiments:
Gcn5 = biological target: T1, Gcn5; assay: Yeast two-hybrid interaction of bnKCP1 with Gcn5 (HIS3, URA3, lacZ reporters); format: cell-based; conditions: MaV203 yeast, Gcn5 fused to Gal4 DB, data not shown
From the text: To reassess the interaction of bnKCP1 with Gcn5 in vivo, the ORF of the Arabidopsis Gcn5 was fused to the yeast Gal4 DNA binding domain in pDBLeu vector and then used to transform yeast MaV203 cells expressing bnKCP1 fused to the yeast Gal4 activation domain in pPC86 vector.

GST-HDA19 [1] = biological target: T2, GST-HDA19; assay: GST pulldown affinity assay of bnKCP1 and mutants with GST-HDA19; format: binding; conditions: [35S]Met-labeled in vitro translated protein
From the text: (§1) The full coding regions of the Arabidopsis HAT, Gcn5 (Dr. M. Thomashow, Michigan State University, MI), and HDA19 (Accession # AF195547) were PCR amplified, sequence analyzed and inserted in-frame with the GST (glutathione s-transferase) into the SalI and NotI sites of vector pGEX-6P-2 (Amersham Pharmacia). The forward used for the amplification of Gcn5 was:
(§2) Recombinant pGEX-6P-2 plasmids were used to transform E. coli BL21-CodonPlus (DE3)-RP competent cells (Stratagene). Expression and purification under non-denaturing conditions were carried out as described by Gao et al. (Gao, M.-J. et al., 2002). The GST-Gcn5 and GST-HDA19 fusion proteins were analyzed by 7.5% SDS-PAGE (SDS-polyacrylamide gel electrophoresis) and western blotting with rabbit anti-GST-Pi polyclonal antibody (Chemicon) using ECL Western blotting analysis system (Amersham Pharmacia).
(§3) Full-length bnKCP1 and truncated mutant bnKCP1^1-160 and bnKCP1^1-80 proteins labeled with [^35S]methionine were produced using TNT-Quick Coupled Transcription/Translation System (Promega) according to the manufacture's instructions, with some modifications. A total of 1 μl of RNase inhibitor (GibcoL BRL) and 1 μl of protease inhibitors set (Roche) were added to the lysate reaction. After incubation for 90 min at 30° C., RNase A was added to the reaction to a final concentration of 0.2 mg/ml and incubated for 5 min at the same temperature.
In vitro protein interaction was detected with GST pulldown affinity assays as described by Ahmad et al. (1999) with some modifications. Briefly, 6 μg of GST or 4 μg of GST-fusion protein was incubated with 5 μl of [^35S]Met-labeled translation mixture in 200 μl of bead-binding buffer (50 mM K-phosphate, pH 7.6, 450 mM KCl, 10 mM MgCl2, 10% glycerol, 1% Triton X-100, 1% BSA and 1 μl of diluted 1:12 protease inhibitors set) for 1 h at room temperature. After incubation, 20 μl of 50% slurry of glutathione-Sepharose beads containing 10 mg/ml of BSA and 4 μg of EtBr was mixed with the reaction mixture followed by gentle rotation for 1 h at 4° C. After washing six times with 1.2 ml of bead-binding buffer without BSA and EtBr but containing 12 μl of protease inhibitors set (Roche), the bound proteins were eluted with 30 μl of 2×SDS loading buffer, boiled for 2 min and analyzed by 12% SDS-PAGE. After electrophoresis, the gels were dried, treated with Amplify (Amersham Pharmacia) and subjected to fluorography.

GST-Gcn5 = biological target: T3, GST-Gcn5; assay: GST pulldown affinity assay of bnKCP1 and mutants with GST-Gcn5; format: binding; conditions: [35S]Met-labeled in vitro translated protein
From the text: as §1, §2, §3
In vitro protein interaction was detected with GST pulldown affinity assays as described by Ahmad et al. (1999) with some modifications. […] After washing six times with 1.2 ml of bead-binding buffer without BSA and EtBr but containing 12 μl of protease inhibitors set (Roche), the bound proteins were eluted with 30 μl of 2×SDS loading buffer, boiled for 2 min and analyzed by 12% SDS-PAGE. […]

[2] = system: lacZ reporter gene driven by promoter containing GAL4 DNA binding sites; assay: Transactivation assay of bnKCP1 using yeast one-hybrid system; format: cell-based, yeast MaV203
From the text: Effector plasmids pDBLeu-bnKCP1^1-160, pDBLeu-bnKCP1^1-80, pDBLeu-bnKCP1^81-215 and pDBLeu-bnKCP1 were constructed by ligating the PCR-amplified fragments ΔbnKCP1^1-160, ΔbnKCP1^1-80, ΔbnKCP1^81-215 and the coding region of bnKCP1 into the SalI/NotI sites of pDBLeu vector (GibcoL BRL) in-frame with the GAL4 DB sequence. The oligonucleotide primers for PCR amplification were as follows: […]
The three reporter genes, lacZ, HIS3 and URA3, which were chromosomally integrated in the genome of MaV203 yeast cells were driven by unrelated promoters containing GAL4 DNA binding sites (GibcoL BRL). For transient assays, the effector constructs or the negative control vector pDBLeu were transferred to the MaV203 yeast cells. The β-galactosidase activity was measured using CPRG (chlorophenol red-β-D-galactopyranoside) according to the manufacturer's instructions (GibcoL BRL). The MaV203 cells containing plasmids pDBLeu-HDA19 and pPC86-bnKCP1 were used as the positive control. In addition, we used three yeast control strains A, B, and C (GibcoL BRL), which were developed to contain plasmid pairs expressing fusion proteins with none, weak and moderately strong protein-protein interaction strength, respectively. Transient Expression of the GUS-bnCKP1 Fusion Protein

[3] = system: lacZ reporter gene driven by a promoter containing GAL4 DNA binding sites; assay: Transactivation assay of BnSCL1 in yeast; format: cell-based, yeast MaV203
From the text: MaV203 yeast cells expressing the lacZ reporter gene driven by a promoter containing GAL4 DNA binding sites (GibcoL BRL) were transformed with the […]. These vectors were constructed by ligating the PCR-amplified fragments, ΔBnSCL1^1-358, ΔBnSCL1^1-261, ΔBnSCL1^1-217, ΔBnSCL1^1-145, ΔBnSCL1^146-358 and ΔBnSCL1^218-434 and the entire coding region of BnSCL1, respectively, into the SalI and NotI sites of the vector pDBLeu (GibcoL BRL) in-frame with the GAL4 DB sequence. The oligonucleotide primers for the amplification were the same as those used for the in vivo protein interaction assays. The β-galactosidase activity was measured using CPRG according to the manufacturer's instructions (GibcoL BRL). In addition to the yeast strains A, B and C, the yeast strains D (GibcoL BRL) that contain plasmid pairs expressing fusion protein with strong interaction strength was used as controls.

GST-HDA19 [4] = biological target: T2, GST-HDA19; assay: GST pulldown affinity assay of BnSCL1 and mutants with GST-HDA19; format: binding; conditions: [35S]Met-labeled in vitro translated protein
Description: The open reading frame (ORF) of the HDA19 was PCR amplified, sequence analyzed, inserted in-frame with the GST (glutathione s-transferase) into the vector pGEX-6P-2 (Amersham Pharmacia), and transformed into E. coli BL21-CodonPlus (DE3)-RP competent cells (Stratagene) as previously described (Gao et al., 2003). The recombinant HDA19 protein was expressed and purified under non-denaturing conditions as described by Gao et al, 2002). The GST-HDA19 fusion protein was analyzed by western blotting with rabbit anti-GST-Pi polyclonal antibody (Chemicon) using ECL Western blotting analysis system (Amersham Pharmacia).
The entire coding region of BnSCL1 and four fragments, BnSCL1^1-358, BnSCL1^1-261, BnSCL1^1-217, and BnSCL1^1-145 […], respectively, were amplified by PCR and cloned into the HindIII and XhoI sites of the expression vector pET-28b (Novagen) in-frame with the His-Tag sequence. […]
The TnT-Quick Coupled Transcription/Translation System (Promega) was used to produce the full-length BnSCL1 protein and the truncated mutants ΔBnSCL1^1-358, ΔBnSCL1^1-261, ΔBnSCL1^1-217 and ΔBnSCL1^1-145 labeled with [^35S]methionine as previously described (Gao et al., 2003). In vitro protein interaction was detected with GST pulldown affinity assays as described by Ahmad et al. (1999) and Gao et al., (2003).

Molecule | induction of reporter genes HIS3, URA3 and lacZ with Gcn5, compared with HDA19 (Gcn5) | in vitro binding to GST-HDA19 (GST-HDA19 [1]) | in vitro binding to GST-Gcn5 (GST-Gcn5) | activation of reporter genes HIS3 and URA3 ([2]; data not shown) | stimulation of β-galactosidase activity ([2]; relative to GAL4 DB alone or yeast control strain A) | transactivation of reporter genes HIS3 and URA3 ([3]; data not shown) | increase of β-galactosidase activity ([3]; relative to vector pDBLeu alone or yeast control strain A) | in vitro binding to GST-HDA19 (GST-HDA19 [4])
B1 | relatively lower level | bound | bound | modestly activated | about 8 fold | – | – | –
B2 | – | – | – | – | – | strongly transactivated | approximately 20 fold | bound
